Assay results as given in PMC4703387, “Identification of the Calmodulin-Binding Domains of Fas Death Receptor” (PLoS ONE, 2016).
Like-named read-outs stand apart in the source and are kept apart here. Blank lines part the entries; values can stand above or below the substance they belong to.

Legend:
[1] = target: calmodulin (Homo sapiens) (UniProt P0DP23); conditions: cited from earlier work
[2] = target: Fas-Pep1 (FasDD residues 209-239); experiment: ITC; Ca2+/CaM at 450 uM titrated into Fas-Pep1 at 25 uM, 25°C, 50 mM HEPES pH 7.0, 100 mM NaCl, 5 mM CaCl2; single set of identical sites
[3] = target: Fas-Pep2 (FasDD residues 251-288); experiment: ITC; Ca2+/CaM at 195 uM titrated into Fas-Pep2 at 17 uM, 35°C, 50 mM HEPES pH 7.0, 100 mM NaCl, 5 mM CaCl2; single set of identical sites
[4] = target: calmodulin, calcium-bound (Ca2+/CaM) (UniProt P0DP23); experiment: SEC; Superdex 75 (10/300 GL), 50 mM Tris pH 7.0, 100 mM NaCl, 5 mM CaCl2; samples ~50-150 uM; fractions by SDS-PAGE; calibration with a low molecular weight kit
[5] = target: calmodulin (Homo sapiens) (UniProt P0DP23); conditions: cited from earlier work; remark: listed apart in the source

Kd [2]: 300 nM | dH [2]: 2.15 kcal/mol | stoichiometry N [2]: 0.95 | Kd [3]: 1100 nM | dH [3]: -14.2 kcal/mol | stoichiometry N [3]: 0.9
Substance: calmodulin, calcium-bound (Ca2+/CaM) (from UniProt P0DP23 1-149) (natural protein)

stoichiometry N [4]: 1
Substance: Fas-Pep1 (FasDD residues 209-239) (peptide)

The remaining lines, values behind:

Substance: Fas death domain peptide 214-238 (from UniProt P25445)
Kd [1]: 19500 nM

Substance: Fas-Pep2 (FasDD residues 251-288) (peptide)
stoichiometry N [4]: 1

Substance: Fas death domain death domain (from UniProt P25445)
Kd [5]: 2000 nM
